Assay results published in paper PMC7999107.

Tests used:
Conditions in all cases: reference: wild type mice; sites S89
14-3-3 epsilon (14-3-3ε) [1] = target: 14-3-3 epsilon (14-3-3ε) (UniProt P62259); assay: anti-14-3-3ε IP, p300 immunoblot
β-catenin = β-catenin (UniProt Q02248); assay: anti-p300 IP, β-catenin immunoblot, nuclear extract
14-3-3 epsilon (14-3-3ε) [2] = target: 14-3-3 epsilon (14-3-3ε) (UniProt P62259); assay: anti-p300 IP, 14-3-3ε immunoblot

Measured: binding against the reference

p300 (from UniProt B2RWS6) p300 S89A knock-in mice
weaker: all assays above
